The subject of assay [1] is synGG primer (5′-TGTGAGAGTGAAATGAGG, SEQ ID NO: 7). Briefly: Incorporation of 3′-O-azidomethyl nucleoside triphosphates (AM-dNTPs) by TdT variants on primer synGG in solution. The class given is biochemical. The note with it: 1 uM primer, 2 uM TdT variant, 80 uM AM-dNTP, 10% DMSO, 5 min at 37° C.
Assay [2] concerns polyT primer (5′-TTTTTTTTTTTTTTTTTTTT (20T), SEQ ID NO: 8). Nature of the assay: Incorporation of 3′-O-azidomethyl nucleoside triphosphates (AM-dNTPs) by TdT variants on primer polyT in solution. Format: biochemical. The following applies: 1 uM primer, 2 uM TdT variant, 80 uM AM-dNTP, 10% DMSO, 5 min at 37° C.

B1: M55: ACT-TdT variant: SEQ ID NO: 1 with substitutions A17V+Q37E+D41R+L52F+G57E+M63R+S94R+G98E+A108V+S146E+K147R+Q149R+C173G+M184T+R207L+K209H+M210Q+G284L+E289A+R325V+E328K+N345E+R351K (protein)
chain: NSSPSPVPGSQNVPAPVVKKISQYACQRRTTLNNYNELFTRALDILAENDEFRENEESCLAFRRASSVLKSLPFPITSMKDTEGIPCLGDKVKRIIEEIIEDGESSEVKAVLNDERYKSFKLFTSVFGVGLKTAEKWFRMGFRTLERIRSDKSLRFTQMQKAGFLYYEDLVSGVNRPEAEAVSTLVKEAVVTFLPDALVTMTGGFRLGHQTGHDVDFLITSPEATEDEEQQLLHKVTDFWKQQGLLLYCDILESTFEKFKQPSRKVDALDHFQKCFLILKLDHLRVHSAKSGQQEGKGWKAIRVDLVMCPYDRRAFALLGWTGSVQFKRDLRRYATHERKMMLDEHALYDKTKRVFLEAESEEEIFAHLGLDYIEPWERNA
modifications: truncated mouse TdT
B1: the “Percentage of AM-dNTP Incorporation (percentage of extended primers)” value (“Percentage of AM-dNTP Incorporation” for short) in assay [1] (AM-dNTP: A) is reported as 74%; in assay [1] (AM-dNTP: C), 86%; in assay [1] (AM-dNTP: G), 30%; in assay [1] (AM-dNTP: T), 76%; in assay [2] (AM-dNTP: A), 15%; in assay [2] (AM-dNTP: C), 69%. The “Percentage of AM-dNTP Incorporation” value in assay [2] (AM-dNTP: G) is recorded as 12%; in assay [2] (AM-dNTP: T) it was 61%.

B2: M56: G-TdT variant: SEQ ID NO: 1 with substitutions A17V+Q37E+D41R+L52F+G57E+M63R+I76V+S94R+G98E+A108V+S146E+Q149R+C173G+M184T+R207L+K209H+F259E+Q261R+K265G+G284L+E289A+R325V+E328N+R351K (protein)
chain: NSSPSPVPGSQNVPAPVVKKISQYACQRRTTLNNYNELFTRALDILAENDEFRENEESCLAFRRASSVLKSLPFPVTSMKDTEGIPCLGDKVKRIIEEIIEDGESSEVKAVLNDERYKSFKLFTSVFGVGLKTAEKWFRMGFRTLEKIRSDKSLRFTQMQKAGFLYYEDLVSGVNRPEAEAVSTLVKEAVVTFLPDALVTMTGGFRLGHMTGHDVDFLITSPEATEDEEQQLLHKVTDFWKQQGLLLYCDILESTFEKEKRPSRGVDALDHFQKCFLILKLDHLRVHSAKSGQQEGKGWKAIRVDLVMCPYDRRAFALLGWTGSVQFNRDLRRYATHERKMMLDNHALYDKTKRVFLEAESEEEIFAHLGLDYIEPWERNA
modifications: truncated mouse TdT
As for B2, the “Percentage of AM-dNTP Incorporation” value was determined as 4% in assay [1] (AM-dNTP: A); 68% in assay [1] (AM-dNTP: C); 65% in assay [1] (AM-dNTP: G); 71% in assay [1] (AM-dNTP: T); 0% in assay [2] (AM-dNTP: A); 27% in assay [2] (AM-dNTP: C). The figures for the “Percentage of AM-dNTP Incorporation” value in assay [2] (AM-dNTP: G) and in assay [2] (AM-dNTP: T) were 15% and 52%, respectively.
